Experimental data taken from patent CN1709911A.

Experiments:
[1] = target: Raji肿瘤细胞核抗原 (Raji肿瘤细胞核提取物 / 固定Raji细胞); test: antigen binding activity, table 2, against rhTNT-IL2 (IgG1) as control; method not described
[2] = target: Raji肿瘤细胞核抗原 (Raji肿瘤细胞核提取物 / 固定Raji细胞); test: antigen binding activity, table 2; this molecule is the reference; method not described
[3] = target: Raji肿瘤细胞核抗原 (Raji肿瘤细胞核提取物 / 固定Raji细胞); test: flow cytometry on paraformaldehyde-fixed Raji cells; 5 ul of 1 mg/ml, anti-human IgG-FITC; first of three values
[4] = target: Raji肿瘤细胞核抗原 (Raji肿瘤细胞核提取物 / 固定Raji细胞); test: flow cytometry on paraformaldehyde-fixed Raji cells; 5 ul of 1 mg/ml, anti-human IgG-FITC; third of three values
[5] = target: Raji肿瘤细胞核抗原 (Raji肿瘤细胞核提取物 / 固定Raji细胞); test: flow cytometry on paraformaldehyde-fixed Raji cells; 5 ul of 1 mg/ml, anti-human IgG-FITC; second of three values

肿瘤坏死治疗单抗-白细胞介素2融合蛋白, IgG4重链恒定区, IL2(Q22-C58) (antibody)
融合蛋白抗原结合活性 [1]: 100%

肿瘤坏死治疗单抗-白细胞介素2融合蛋白, IgG2重链恒定区, 全长IL2 (antibody)
融合蛋白抗原结合活性 [1]: 100%

肿瘤坏死治疗单抗-白细胞介素2融合蛋白, IgG3重链恒定区, IL2(Q22-C58) (antibody)
融合蛋白抗原结合活性 [1]: 100%

肿瘤坏死治疗单抗-白细胞介素2融合蛋白, IgG1重链恒定区, IL2(Q22-C58) (antibody)
融合蛋白抗原结合活性 [1]: 100%

肿瘤坏死治疗单抗-白细胞介素2融合蛋白, IgG4重链恒定区, 全长IL2 (antibody)
融合蛋白抗原结合活性 [1]: 100%

肿瘤坏死治疗单抗-白细胞介素2融合蛋白, IgG3重链恒定区, 全长IL2 (antibody)
融合蛋白抗原结合活性 [1]: 100%

rhTNT-IL2融合蛋白 (重组人肿瘤坏死治疗单抗-白细胞介素2融合蛋白, IgG1, 连接肽AAAGGGS, 全长IL2) (antibody)
融合蛋白抗原结合活性 [2]: 100% | 特异结合活性 [3]: 98.2% | 特异结合活性 [4]: 98.6% | 特异结合活性 [5]: 98.3%

肿瘤坏死治疗单抗-白细胞介素2融合蛋白, IgG2重链恒定区, IL2(Q22-C58) (antibody)
融合蛋白抗原结合活性 [1]: 100%
